The source of these data is patent publication US20140011209, “Aptamers for Prion Diagnostics and Aptamer Binding Detection System” (Aptrix Biosystems LLC, published 2014).

The target in series [1] is T1, RVV-X (Russell's viper venom factor X activator) (UniProt Q7LZ61;Q4PRD1;Q4PRD2 Q7LZ61:189-619,Q4PRD1:24-146,Q4PRD2:25-158). Nature of the series: EMSA. The conditions noted are these: tags: Haematologic Technologies; label: 32P end; three loops, two bulges, three stems. A general note: In EMSA bound probe runs differently from free probe, usually more slowly.
Series [2] deals with T1, RVV-X (Russell's viper venom factor X …). Nature of the series: EMSA; room temperature, 1 h. The conditions noted are these: tags: Haematologic Technologies, label: 32P end.
Series [3] concerns the target RVV-X (Russell's viper venom factor X activator) (UniProt Q7LZ61;Q4PRD1;Q4PRD2 Q7LZ61:189-619,Q4PRD1:24-146,Q4PRD2:25-158). Nature of the series: EMSA. The conditions noted are these: tags: Haematologic Technologies; label: 32P end.
Series [4] has as its target T1, RVV-X (Russell's viper venom factor X …). Nature of the series: EMSA; prion binding component alone. The conditions noted are these: tags: Haematologic Technologies; label: 32P end; two loops and two short stems.
The next series has as its target alpha-Thrombin (Homo sapiens, UniProt P00734;P00734 P00734:328-363,P00734:364-622). The series can be described thus: EMSA. The conditions noted are these: tags: Haematologic Technologies; label: 32P end; two loops and two short stems.
The target of series [5] is T1, RVV-X (Russell's viper venom factor X …). The series can be described thus: EMSA; scrambled SEQ 1, negative control. The conditions noted are these: tags: Haematologic Technologies; label: 32P end.

Usually Kd stands for the constant that tells how readily two partners part at equilibrium. A low value points to higher affinity.

B1: Fus74_10_5 (ssRNA)
RNA: GACCGGGGAGACAAGACUAGACGCUCAACUACGAACUCAUGACACAAGGAUGCAAUCUCAUCCCGACCUUUGCCUAAACAGCUGAUGGUUUACAAAGGAAGCACG
As for B1, the affinity in series [1], expressed as Kd, was 63.9 nM.

Take AAAGCGACCGACCUUUGCCUAAACAGCUGAUGGUUUACAAAGGAA (ssRNA) [74, 5 from both]: the Kd in series [2] was 426 nM.

B2: SEQ ID NO. 2 (ssRNA)
RNA: AAGGCGAGGUGCGACCCGCACGUGGCAUCUGAUAGCACAUGAAAAGGCACGUCA
With B2, the Kd in series [3] came to 23 nM.

B3: B-end (PrPSc binding region) (ssRNA)
RNA: GGGAGACAAGACUAGACGCUCAACUACGAACUCAUGACACAAGGAUGCAAUCUCAUCCCG
As for B3, the figures for the Kd (in series [4]; in the series with alpha-Thrombin) were 170 nM and 4220 nM, respectively.

On to UCCUCAAAGCGACCGACCUUUGCCUAAACAGCUGAUGGUUUACAAAGGAA (ssRNA) [74, 5 from 3'], for which the affinity in series [2], expressed as Kd, was 352 nM.

B4: Scrambled SEQ ID NO. 107 (ssRNA)
RNA: GGAGGCCAACUAAUAACGCCAGAACUAUAGGAAUCCCAUGAAGCGAGCGAGAAUU
In series [5], B4 returned a Kd of 131 nM.

The molecule UCCUCAAAGCGACCGACCUUUGCCUAAACAGCUGAUGGUUUACAA (ssRNA) [74, 10 from 3'] gave a Kd in series [2] of 301 nM.

B5: SEQ ID NO. 1 (ssRNA)
RNA: UAGCGACAAGGCGACAAGCAAUGACACAUUAACAGACCCUGGUUAGUGAACGAA
As to B5, the Kd in series [3] was 30 nM.

B6: SEQ ID NO. 6 (ssRNA)
RNA: UGGCGGAUACUCUGCGAAGGGCGAACCCAACAUUUCGCACAGGACCGACUACUGCA
On to B6, for which the Kd in series [3] was 19 nM.

Molecule AAAGCGACCGACCUUUGCCUAAACAGCUGAUGGUUUACAAAGGAAGCACG (ssRNA) [74, 5 from 5'] returned a Kd in series [2] of 374 nM.

As for GACCGACCUUUGCCUAAACAGCUGAUGGUUUACAAAGGAAGCACG (ssRNA) [74, 10 from 5'], the Kd in series [2] (stem-loop with bulge) amounted to 250 nM.

B7: 74 alone (ssRNA)
RNA: UCCUCAAAGCGACCGACCUUUGCCUAAACAGCUGAUGGUUUACAAAGGAAGCACG
Consider B7, for which the Kd in series [3] was found to be 75 nM. In other words, the double-digit nanomolar range.

B8: SEQ ID NO. 4 (ssRNA)
RNA: UGGCGACGAGGCGGCAGGCAAUGACACAUUAGCAGACCCUGGUUAAUGAGCGAA
B8 showed a Kd in series [3] of 158 nM.

B9: SEQ ID NO. 3 (ssRNA)
RNA: UCUUCCAACGACCAUGCGGCGACAAGCGACUACAAGAGGGUACCCACGGACAGCA
For B9, in series [3], the Kd amounted to 94.7 nM.
